The values that follow come from patent US12497462 (IMMUNITYBIO, dated 2025).

Experiment [1] addresses T1, Human CD26 on transfected CHO cells (human, UniProt P27487 1-766).
T1 construct: whole, on cells; also called CHO26; CD26 positive CHO cells
The experiment is described as follows: flow cytometry on human CD26-transfected CHO cells, antibody 50 nM, goat anti-human IgG-PE. In general terms: A flow cytometer gives signals particle by particle.

The target in another experiment is goat anti-human IgG. The experiment is described as follows: ELISA, goat anti-human IgG coated (control plate), goat anti-human kappa-HRP/ABTS. On the technique in general: In an ELISA, binding on a coated surface is turned into a signal by an enzyme label.
For experiment [2], the target named is T2, Human CD26-Fc fusion protein (human).
T2 construct: also called CD26/beads
T2 sequence (chain, as listed by the source): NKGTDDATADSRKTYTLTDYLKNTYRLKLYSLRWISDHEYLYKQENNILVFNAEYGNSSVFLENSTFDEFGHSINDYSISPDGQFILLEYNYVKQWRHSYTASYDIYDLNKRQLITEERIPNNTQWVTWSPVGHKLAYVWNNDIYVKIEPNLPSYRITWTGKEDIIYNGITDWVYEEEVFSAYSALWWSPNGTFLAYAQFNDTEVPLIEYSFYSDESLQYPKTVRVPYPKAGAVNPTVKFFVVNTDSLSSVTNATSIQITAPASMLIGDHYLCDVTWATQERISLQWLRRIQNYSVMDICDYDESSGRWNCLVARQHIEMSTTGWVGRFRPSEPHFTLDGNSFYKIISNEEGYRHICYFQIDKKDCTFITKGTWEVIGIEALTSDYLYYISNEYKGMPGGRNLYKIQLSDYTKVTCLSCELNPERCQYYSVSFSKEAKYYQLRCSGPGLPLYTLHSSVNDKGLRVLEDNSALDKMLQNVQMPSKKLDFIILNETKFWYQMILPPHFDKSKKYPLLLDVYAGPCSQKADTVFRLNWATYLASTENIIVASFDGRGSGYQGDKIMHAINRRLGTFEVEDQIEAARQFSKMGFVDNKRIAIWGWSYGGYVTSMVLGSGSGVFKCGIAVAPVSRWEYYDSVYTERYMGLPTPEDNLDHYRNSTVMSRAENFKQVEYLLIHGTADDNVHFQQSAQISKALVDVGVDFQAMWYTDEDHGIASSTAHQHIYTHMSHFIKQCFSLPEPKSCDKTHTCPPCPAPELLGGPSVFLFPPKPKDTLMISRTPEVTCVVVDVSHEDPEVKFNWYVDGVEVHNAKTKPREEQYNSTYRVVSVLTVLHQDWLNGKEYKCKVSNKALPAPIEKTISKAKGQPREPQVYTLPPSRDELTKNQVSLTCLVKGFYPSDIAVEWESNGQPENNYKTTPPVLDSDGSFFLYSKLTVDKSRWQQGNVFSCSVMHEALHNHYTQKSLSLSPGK
The experiment is described as follows: ELISA, CD26-Fc coated, purified IgG1 kappa antibody in 3-fold steps, goat anti-human kappa-HRP/ABTS.

In experiment [3] the target is T2, Human CD26-Fc fusion protein. The experiment can be described thus: competition ELISA on coated CD26-Fc (5 µg/mL): ADA is varied and the blocked molecule is biotinylated CD26Ab-01D at 5 nM, read with SAHRP/ABTS.
For experiment [4] the target is unchanged. The experiment can be described thus: ELISA, CD26-Fc coated, purified IgG1 kappa antibody, goat anti-human kappa-HRP/ABTS.

T1 sequence (P27487 whole entry): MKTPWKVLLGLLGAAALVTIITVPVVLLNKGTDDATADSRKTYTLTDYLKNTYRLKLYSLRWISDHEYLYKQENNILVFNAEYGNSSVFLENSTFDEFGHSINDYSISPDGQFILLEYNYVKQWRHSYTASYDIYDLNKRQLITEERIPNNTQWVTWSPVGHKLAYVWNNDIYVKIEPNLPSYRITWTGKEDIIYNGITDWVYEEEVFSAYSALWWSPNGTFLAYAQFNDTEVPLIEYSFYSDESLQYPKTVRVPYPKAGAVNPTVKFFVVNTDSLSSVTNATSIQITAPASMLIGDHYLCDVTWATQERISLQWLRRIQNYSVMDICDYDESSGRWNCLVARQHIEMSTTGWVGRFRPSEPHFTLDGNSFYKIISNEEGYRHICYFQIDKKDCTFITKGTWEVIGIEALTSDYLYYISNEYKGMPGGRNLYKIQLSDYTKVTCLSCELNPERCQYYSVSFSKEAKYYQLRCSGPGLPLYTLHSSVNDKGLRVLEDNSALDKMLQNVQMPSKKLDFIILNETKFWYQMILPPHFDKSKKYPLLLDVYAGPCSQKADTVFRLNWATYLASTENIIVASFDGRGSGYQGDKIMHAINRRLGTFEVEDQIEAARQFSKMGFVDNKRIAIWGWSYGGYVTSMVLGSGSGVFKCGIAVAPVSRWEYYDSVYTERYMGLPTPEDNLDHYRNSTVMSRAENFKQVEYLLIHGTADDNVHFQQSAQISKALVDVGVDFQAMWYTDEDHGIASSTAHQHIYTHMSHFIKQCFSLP

B1: CD26Ab-04A anti-CD26 IgG1 kappa monoclonal antibody (antibody, V domains shown)
VH: EVQLVESGGGLVQPGGSLRLSCAASGFAINNYSIHWVRQAPGKGLEWVASIWPYGGFTSYADSVKGRFTISADTSKNTAYLQMNSLRAEDTAVYYCARFFSSYGDMDYWGQGTLVTVSS
VL: DIQMTQSPSSLSASVGDRVTITCRASQDVSGGVAWYQQKPGKAPKLLIYGTSGLYSGVPSRFSGSGSGTDFTLTISSLQPEDFATYYCQQGGDWPITFGQGTKVEIKR
notes: Used biotinylated in some assays; also called CD26-04A
In general, EC50 (read off the curve) refers to the concentration giving half of the maximal effect. A higher EC50 (read off the curve) goes with a need for much substance. In experiment [1], B1 had an MFI of 4360. Also, the 50% effective concentration (EC50 (read off the curve)) is approximately 0.4 nM in the experiment with goat anti-human IgG and approximately 1 nM in experiment [2].

B2: Human adenosine deaminase (ADA) (enzyme, UniProt P00813 1-363, looked up)
chain: MAQTPAFDKPKVELHVHLDGSIKPETILYYGRRRGIALPANTAEGLLNVIGMDKPLTLPDFLAKFDYYMPAIAGCREAIKRIAYEFVEMKAKEGVVYVEVRYSPHLLANSKVEPIPWNQAEGDLTPDEVVALVGQGLQEGERDFGVKARSILCCMRHQPNWSPKVVELCKKYQQQTVVAIDLAGDETIPGSSLLPGHVQAYQEAVKSGIHRTVHAGEVGSAEVVKEAVDILKTERLGHGYHTLEDQALYNRLRQENMHFEICPWSSYLTGAWKPDTEHAVIRLKNDQANYSLNTDDPLIFKSTLDTDYQMTKRDMGFTEEEFKRLNINAAKSSFLPEDEKRELLDLLYKAYGMPPSASAGQNL
notes: Bought reagent; also called Human ADA (R&D systems)
Turning to B2, the “IC50 (read off the curve)” value in experiment [3] was approximately 0.01 nM.

B3: CD26Ab-01D anti-CD26 IgG1 kappa monoclonal antibody (antibody, V domains shown)
VH: EVQLVESGGGLVQPGGSLRLSCAASGFTINDSYIHWVRQAPGKGLEWVAWIWPYGGFTYYADSVKGRFTISADTSKNTAYLQMNSLRAEDTAVYYCARFLGSSSIMDYWGQGTLVTVSS
VL: DIQMTQSPSSLSASVGDRVTITCRASQDVNSNVAWYQQKPGKAPKLLIFGSGGLYSGVPSRFSGSGSGTDFTLTISSLQPEDFATYYCQQYSSYPLTFGQGTKVETKR
B3 returned an MFI in experiment [1] of 1700. In experiment [2], the binding result was “binds”.

B4: CD26Ab-10B anti-CD26 IgG1 kappa monoclonal antibody (antibody, V domains shown)
VH: EVQLVESGGGLVQPGGSLRLSCAASGFTISDYSIHWVRQAPGKGLEWVASIWPYGGFTSYADSVKGRFTISADTSKNTAYLQMNSLRAEDTAVYYCARFHSSSGDMDYWGQGTLVTVSS
VL: DIQMTQSPSSLSASVGDRVTITCRASQDVWGYVAWYQQKPGKAPKLLIFASGALYSGVPSRFSGSGSGTDFTLTISSLQPEDFATYYCQQYFNWPITFGQGTKVEIKR
notes: Very low production; not biotinylated
As for B4, in experiment [1], the MFI is 105. Also, in experiment [4], the binding result is on record as “no binding (tested: 500000 pM)”.
